System: Micrococcus lysodeikticus lyophilized cell suspensions
Assay: Lysozyme enzymatic assay: absorbance change at 450 nm of cell suspensions
Type: biochemical
Details: 0.01 mg/mL enzyme, 10 μL into 250 μL cell suspension 0.32 mg/mL, 66 mM phosphate buffer pH 6.2; A450 every minute for 15 minutes; ratio of slopes minus blank
Method: Lysozyme is an antimicrobial enzyme that is capable of hydrolyzing the 1,4-beta-linkages in the peptidoglycan of Gram-positive bacterial cell walls, thus leading to the lysis of bacteria (Fig. 8a). Therefore, the catalytic activity of modified lysozyme was assessed by investigation of the absorbance change at 450 nm of Micrococcus lysodeikticus lyophilized cell suspensions over time, where the activity of the modified lysozyme is proportional to their capability to hydrolyze the bacterial cell walls.[45] In comparison to native lysozyme, the disulfide-modified lysozyme Ly-PEG-Tz retained 86% of its activity (Fig. 8b, calculation details shown in Section 8.3 in ESI ^†).
Fig. 8 (a) The hydrolysis of 1,4-beta-linkages between N-acetyl-D-glucosamine (NAG) and N-acetylmuramic acid (NAM) residues in peptidoglycans of Gram-positive bacterial cell walls. The absorbance of the cell suspension at 450 nm was monitored to evaluate their catalytic activity and the rate of absorbance decrease was proportional to its activity. […]
The lysozyme enzymatic assay was performed according to the protocol form Sigma Aldrich’s technical bulletin. […] 250 μL of the cell suspensions was added to the 96-well plate and the absorbance was measured at 450 nm. According to the obtained absorbance, the concentration was carefully adjusted to ensure the absorbance at 450 nm between 0.6 and 0.7. […]

Substance | catalytic activity retained in comparison to native lysozyme
Ly-PEG5-Tz: lysozyme statistically modified at lysines with Tz-PEG5-NHS; mixture of no, single and dual modification | Total loss of the activity
Ly-PEG-Tz: lysozyme (hen egg white) modified at the C6–C127 disulfide with PEG-tetrazine via compound 8 | 86%

Reference: article PMC8528048, “Chemoselective cysteine or disulfide modification via single atom substitution in chloromethyl acryl reagents” (Chemical Science, 2021)
